The results in this text go back to paper PMC11910319, “Inhibition of L-threonine dehydrogenase from Trypanosoma cruzi reduces glycine and acetate production and interferes with parasite growth and viability” (The Journal of Biological Chemistry, 2024).

The target in data set [1] is T1, T. cruzi L-threonine dehydrogenase (TcTDH) (Trypanosoma cruzi, UniProt Q4CU39).
T1 construct: gene Tc00.1047053507923.10; recombinant TcTDH, codon-optimized gene in pET28a, His-tag purified
T1 sequence (Q4CU39 1-332): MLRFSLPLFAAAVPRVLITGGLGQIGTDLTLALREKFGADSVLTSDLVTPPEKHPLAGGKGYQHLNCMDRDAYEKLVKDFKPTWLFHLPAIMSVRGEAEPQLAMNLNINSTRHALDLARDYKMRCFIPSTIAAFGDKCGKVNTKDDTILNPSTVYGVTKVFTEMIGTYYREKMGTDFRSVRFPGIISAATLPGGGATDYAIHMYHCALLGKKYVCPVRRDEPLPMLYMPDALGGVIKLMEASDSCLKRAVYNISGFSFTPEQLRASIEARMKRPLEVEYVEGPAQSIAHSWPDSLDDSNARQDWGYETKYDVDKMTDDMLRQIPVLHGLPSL
The data set can be described thus: recombinant enzyme, diaphorase/resazurin coupled fluorescence assay; Ki by direct NADH fluorescence (Ki-Thr […], Ki-NAD+[…]). It is filed as biochemical.

In data set [2] the target is Trypanosoma cruzi L-threonine dehydrogenase (TcTDH), recombinant wild type (Trypanosoma cruzi (CL Brener Esmeraldo-like strain)). The data set can be described thus: SEC; data not shown; quaternary structure in solution. For orientation: In gel filtration, larger molecules generally elute earlier.
Substrate in the data set “purified protein”: C[C@@H](O)[C@H](N)C(=O)O
Nature of the data set: purified protein. It is filed as biochemical, Trypanosoma cruzi. The note with it: NAD+; K+ ([…] KCl).

In general, IC50 refers to the concentration at which inhibition is half-maximal. As to `CCOc1ccc(NC(=O)/C=C/c2ccc(CC)o2)cc1` [TCMDC-143160], in data set [1], the IC50 was 3.5 µM.

Broadly, the stoichiometry N is the number of molecules, sites or subunits per partner or assembly. Turning to “Trypanosoma cruzi L-threonine dehydrogenase (TcTDH), recombinant wild type (enzyme)”, in data set [2], the stoichiometry N is 2.

B1: T. cruzi L-threonine dehydrogenase (TcTDH) (Trypanosoma cruzi strain CL Brener) (protein)
chain: MLRFSLPLFAAAVPRVLITGGLGQIGTDLTLALREKFGADSVLTSDLVTPPEKHPLAGGKGYQHLNCMDRDAYEKLVKDFKPTWLFHLPAIMSVRGEAEPQLAMNLNINSTRHALDLARDYKMRCFIPSTIAAFGDKCGKVNTKDDTILNPSTVYGVTKVFTEMIGTYYREKMGTDFRSVRFPGIISAATLPGGGATDYAIHMYHCALLGKKYVCPVRRDEPLPMLYMPDALGGVIKLMEASDSCLKRAVYNISGFSFTPEQLRASIEARMKRPLEVEYVEGPAQSIAHSWPDSLDDSNARQDWGYETKYDVDKMTDDMLRQIPVLHGLPSL
notes: recombinant TcTDH
In general, Km refers to the concentration of substrate that gives half-maximal velocity. B1: in the data set “purified protein”, the Km was 6.6 mM.
